For experiment [1], the target named is T1, recombinant human TNFα (human, UniProt P01375 77-233). The experiment in a line: cell-based or functional assay.
The target of experiment [2] is T1, recombinant human TNFα. The experiment in a line: inhibition of 125I-TNFα binding to plate-coated p55-sf2 by hybridoma supernatant.
The target of experiment [3] is T1, recombinant human TNFα. Nature of the experiment: competition: mAb in hybridoma supernatant preincubated with 5 ng/ml 125I-TNFα, mixture added to plate-coated p55-sf2, cpm bound counted; blocked ligand p55-sf2.

B1: TNV148 (antibody, V domains shown)
VH: QVQLVESGGGVVQPGRSLRLSCAASGFIFSSYAMHWVRQAPGNGLEWVAFMSYDGSNKKYADSVKGRFTISRDNPKNTLYLQMNSLRAEDTAVYYCARDRGIAAGGNYYYYGMDVWGQGTTVTVSS
VL: EIVLTQSPATLSLSPGERATLSCRASQSVYSYLAWYQQKPGQAPRLLIYDASNRATGIPARFSGSGSGTDFTLTISSLEPEDFAVYYCQQRSNWPPFTFGPGTKVDIKR
With B1, the “neutralizing TNFα bioactivity” value in the experiment with recombinant human TNFα [1] was 4 fold (against TNV14). Moreover, the “fold better at blocking TNF binding than TNV118 and TNV14” value with recombinant human TNFα [2] was roughly 4 fold. Further, the “IC50 (read off the curve)” value in the experiment with recombinant human TNFα [3] is roughly 4 ng/mL.

B2: TNV15 (antibody, V domains shown)
VH: QVQLVESGGGVVQPGRSLRLSCAASGFTFSSYAMHWVRQAPGKGLEWVAFILYDGSNKKYADSVKGRFTISRDNSKNALYLQMNSLRAEDTAVYYCARDRGVSAGGNYYYYGMDVWGQGTTVTVSS
VL: EIVLTQSPATLSLSPGERATLSCRASQSVSSYLAWYQQKPGQAPRLLIYDASNRATGIPARFSGSGSGTDFTLTISSLEPEDFAVYYCQQRSNWPPFTFGPGTKVDIK
Consider B2, for which the “IC50 (read off the curve)” value with recombinant human TNFα [3] is roughly 4 ng/mL.

B3: TNV196 (antibody, V domains shown)
VH: QVQLVESGGGVVQPGRSLRLSCAASGFTFSSYAMHWVRQAPGKGLEWVAFISYDGSNKKSADSVKGRFTVSRDNSKNTLFLQMNSLRAEDTAVFYCARDRGIGAGGNYYYYGMDVWGQGTTVTVSS
VL: EIVLTQSPATLSLSPGERATLSCRASQSVYSYLAWYQQKPGQAPRLLIYDASNRATGIPARFSGSGSGTDFTLTISSLEPEDFAVYYCQQRSNWPPFTFGPGTKVDIK
B3: the “neutralizing TNFα bioactivity” value in the experiment with recombinant human TNFα [1] was 4 fold (against TNV14). Besides, in the experiment with recombinant human TNFα [3], the “IC50 (read off the curve)” value is roughly 4 ng/mL.

For the origin of these results see patent US20220064278A1 (Janssen / Centocor, published 2022).
